Patent US12012453B2, “Methods for treating late-stage small cell lung cancer by administering a human anti-PD-L1 antibody, an etoposide and a platinum-based therapeutic” (ASTRAZENECA AB, priority 2019, dated 2024)

Tests used:
[1] = tested on: patients with platinum-refractory disease; details: second-line; cited from earlier work
patients with ES-SCLC [2] = experiment: CASPIAN phase 3 trial: treatment-related adverse events (safety population)
Description: (§2) Patients were randomized in a 1:1:1 ratio to receive durvalumab 1500 mg plus EP, durvalumab 1500 mg plus tremelimumab 75 mg plus EP, or EP (FIG. 1). Across all three study arms, chemotherapy consisted of etoposide 80-100 mg/m^2 (administered on days 1 to 3 of each cycle), with either carboplatin area under the curve 5-6 mg/mL/min or cisplatin 75-80 mg/m^2 (administered on day 1 of each cycle). Randomization was stratified according to planned platinum agent. Patients in the immunotherapy arms received up to 4 cycles of EP plus durvalumab every 3 weeks (q3w) followed by maintenance durvalumab 1500 mg every 4 weeks (q4w). Patients in the EP arm could receive an additional 2 cycles of EP (up to 6 cycles total) and prophylactic cranial irradiation (PCI). Patients continued treatment until Response Evaluation Criteria in Solid Tumor version 1.1 (RECIST v1.1)-defined disease progression, unacceptable toxicity, or other discontinuation criteria were met. Continuation of study treatment following disease progression was permitted if there was evidence of clinical benefit (FIG. 1). In-study crossover from the EP to the immunotherapy plus EP arms was not allowed.
(§3) Tumor imaging was performed every 6 weeks for the first 12 weeks, and every 8 weeks thereafter, until confirmed objective disease progression. Survival was assessed every 2 months following treatment discontinuation.
(§4) All patients who received at least one dose of study treatment were included in safety analyses.

patients with ES-SCLC [3] = experiment: CASPIAN phase 3 trial: overall survival and progression-free survival, intention-to-treat population; format: in vivo, human; details: ITT
Description: (§1) Eligible patients included adults with histologically or cytologically documented ES-SCLC and were treatment naïve. […] Patients with brain metastases were eligible provided they were asymptomatic or treated and stable off steroids and anticonvulsants for at least 1 month prior to study entry.
Randomization was stratified according to planned platinum agent.
Survival was assessed every 2 months following treatment discontinuation.
The primary endpoint was OS (time from randomization to death from any cause). Secondary endpoints included progression-free survival (PFS; time from randomization to the date of objective disease progression or death from any cause in the absence of progression), objective response rate (ORR), OS at 18 and 24 months, PFS at 6 and 12 months, and safety. PFS and ORR were assessed according to RECIST v1.1.

patients with ES-SCLC [4] = experiment: CASPIAN phase 3 trial: tumor response per RECIST v1.1 (objective response, duration of response); format: in vivo, human; details: for Odds ratio (95% CI) for ORR versus EP: logistic regression adjusted for platinum agent
Description: as §1
Randomization was stratified according to planned platinum agent. […]
The primary endpoint was OS (time from randomization to death from any cause). […] PFS and ORR were assessed according to RECIST v1.1.

patients with ES-SCLC [5] = details: in vivo
Description: as §2, §3, §4

[6] = tested on: natural killer (NK) ADCC activity; details: cited from earlier work
human CTLA-4 = human CTLA-4 (Homo sapiens, UniProt P16410); details: cited from earlier work
Fc receptors = details: cited from earlier work
xenograft model = details: cited from earlier work
[7] = tested on: PD-L1-mediated suppression of human T-cell activation; details: in vitro; cited from earlier work
[8] = final analysis, Kaplan-Meier, listed as D+EP

Sequence of human CTLA-4 (P16410 36-223): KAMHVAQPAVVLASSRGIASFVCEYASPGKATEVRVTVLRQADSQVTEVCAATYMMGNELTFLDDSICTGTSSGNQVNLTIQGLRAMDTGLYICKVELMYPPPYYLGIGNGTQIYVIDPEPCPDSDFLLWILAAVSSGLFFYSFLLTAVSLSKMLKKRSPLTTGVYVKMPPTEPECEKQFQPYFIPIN

CC[C@@]1(O)C(=O)OCc2c1cc1n(c2=O)Cc2cc3c(CN(C)C)c(O)ccc3nc2-1 [topotecan]
one-year survival rate [1]: 9% | response rates [1]: 5%

Durvalumab + EP
Alopecia, treatment-related (patients with ES-SCLC [2]; Any grade): 75 (28) n (%) | Anaemia, treatment-related (patients with ES-SCLC [2]; Any grade): 85 (32) n (%) | Any treatment-related event (patients with ES-SCLC [2]; Any grade): 237 (89) n (%) | Any treatment-related event leading to discontinuation (patients with ES-SCLC [2]; Any grade): 16 (6) n (%) | Any treatment-related serious event (patients with ES-SCLC [2]; Any grade): 35 (13) n (%) | Asthenia, treatment-related (patients with ES-SCLC [2]; Any grade): 27 (10) n (%) | Constipation, treatment-related (patients with ES-SCLC [2]; Any grade): 23 (9) n (%) | Decreased appetite, treatment-related (patients with ES-SCLC [2]; Any grade): 33 (12) n (%) | Diarrhoea, treatment-related (patients with ES-SCLC [2]; Any grade): 17 (6) n (%) | Fatigue, treatment-related (patients with ES-SCLC [2]; Any grade): 30 (11) n (%) | Febrile neutropenia, treatment-related (patients with ES-SCLC [2]; Any grade): 15 (6) n (%) | Hyperthyroidism, treatment-related (patients with ES-SCLC [2]; Any grade): 22 (8) n (%) | Hypothyroidism, treatment-related (patients with ES-SCLC [2]; Any grade): 23 (9) n (%) | Leucopenia, treatment-related (patients with ES-SCLC [2]; Any grade): 36 (14) n (%) | Lipase increased, treatment-related (patients with ES-SCLC [2]; Any grade): 10 (4) n (%) | Nausea, treatment-related (patients with ES-SCLC [2]; Any grade): 74 (28) n (%) | Neutropenia, treatment-related (patients with ES-SCLC [2]; Any grade): 104 (39) n (%) | Neutrophil count decreased, treatment-related (patients with ES-SCLC [2]; Any grade): 24 (9) n (%) | Paraesthesia, treatment-related (patients with ES-SCLC [2]; Any grade): 14 (5) n (%) | Platelet count decreased, treatment-related (patients with ES-SCLC [2]; Any grade): 14 (5) n (%) | Pruritus, treatment-related (patients with ES-SCLC [2]; Any grade): 11 (4) n (%) | Rash, treatment-related (patients with ES-SCLC [2]; Any grade): 10 (4) n (%) | Thrombocytopenia, treatment-related (patients with ES-SCLC [2]; Any grade): 37 (14) n (%) | Vomiting, treatment-related (patients with ES-SCLC [2]; Any grade): 32 (12) n (%) | White blood cell count decreased, treatment-related (patients with ES-SCLC [2]; Any grade): 12 (5) n (%) | Alopecia, treatment-related (patients with ES-SCLC [2]; Grade 3 or 4): 3 (1) n (%) | Anaemia, treatment-related (patients with ES-SCLC [2]; Grade 3 or 4): 21 (8) n (%) | Any treatment-related event (patients with ES-SCLC [2]; Grade 3 or 4): 121 (46) n (%) | Any treatment-related event leading to discontinuation (patients with ES-SCLC [2]; Grade 3 or 4): 3 (1) n (%) | Any treatment-related serious event (patients with ES-SCLC [2]; Grade 3 or 4): 25 (9) n (%) | Asthenia, treatment-related (patients with ES-SCLC [2]; Grade 3 or 4): 2 (1) n (%) | Constipation, treatment-related (patients with ES-SCLC [2]; Grade 3 or 4): 0 n (%) | Decreased appetite, treatment-related (patients with ES-SCLC [2]; Grade 3 or 4): 1 (<1) n (%) | Diarrhoea, treatment-related (patients with ES-SCLC [2]; Grade 3 or 4): 2 (1) n (%) | Fatigue, treatment-related (patients with ES-SCLC [2]; Grade 3 or 4): 2 (1) n (%) | Febrile neutropenia, treatment-related (patients with ES-SCLC [2]; Grade 3 or 4): 13 (5) n (%) | Hyperthyroidism, treatment-related (patients with ES-SCLC [2]; Grade 3 or 4): 0 n (%) | Hypothyroidism, treatment-related (patients with ES-SCLC [2]; Grade 3 or 4): 0 n (%) | Leucopenia, treatment-related (patients with ES-SCLC [2]; Grade 3 or 4): 15 (6) n (%) | Lipase increased, treatment-related (patients with ES-SCLC [2]; Grade 3 or 4): 8 (3) n (%) | Nausea, treatment-related (patients with ES-SCLC [2]; Grade 3 or 4): 0 n (%) | Neutropenia, treatment-related (patients with ES-SCLC [2]; Grade 3 or 4): 61 (23) n (%) | Neutrophil count decreased, treatment-related (patients with ES-SCLC [2]; Grade 3 or 4): 16 (6) n (%) | Paraesthesia, treatment-related (patients with ES-SCLC [2]; Grade 3 or 4): 0 n (%) | Platelet count decreased, treatment-related (patients with ES-SCLC [2]; Grade 3 or 4): 4 (2) n (%) | Pruritus, treatment-related (patients with ES-SCLC [2]; Grade 3 or 4): 0 n (%) | Rash, treatment-related (patients with ES-SCLC [2]; Grade 3 or 4): 0 n (%) | Thrombocytopenia, treatment-related (patients with ES-SCLC [2]; Grade 3 or 4): 14 (5) n (%) | Vomiting, treatment-related (patients with ES-SCLC [2]; Grade 3 or 4): 0 n (%) | White blood cell count decreased, treatment-related (patients with ES-SCLC [2]; Grade 3 or 4): 4 (2) n (%) | patients who had died (patients with ES-SCLC [3]; final analysis data cutoff): 78% | patients who had disease progression or died (patients with ES-SCLC [3]; final data cutoff): 87% | 12-month PFS rate (patients with ES-SCLC [3]; final/updated analysis): 17.9% | 24-month PFS rate (patients with ES-SCLC [3]; final/updated analysis): 11.0% | HR for PFS versus EP (patients with ES-SCLC [3]; final/updated analysis): 0.80 | Median OS (patients with ES-SCLC [3]; final/updated analysis): 12.9 months | Median PFS (patients with ES-SCLC [3]; final/updated analysis): 5.1 months | HR for OS versus EP (patients with ES-SCLC [3]; final/updated analysis, Cox model stratified by platinum agent): 0.75 | 24-month OS rate (patients with ES-SCLC [3]; final/updated analysis, Kaplan-Meier): 22.2% | Best objective response: Complete response (patients with ES-SCLC [4]; final analysis): 7 (3) n (%) | Best objective response: Not evaluable (patients with ES-SCLC [4]; final analysis): 3 (1) n (%) | Best objective response: Partial response (patients with ES-SCLC [4]; final analysis): 175 (65) n (%) | Best objective response: Progressive disease (patients with ES-SCLC [4]; final analysis): 32 (12) n (%) | Best objective response: Stable disease for at least 6 weeks (patients with ES-SCLC [4]; final analysis): 20 (7) n (%) | Best objective response: Unconfirmed response (patients with ES-SCLC [4]; final analysis): 31 (12) n (%) | Best reduction from baseline in target lesion size, Mean (SD) (patients with ES-SCLC [4]; final analysis): −57.0 (24.59) % | Best reduction from baseline in target lesion size, Median (IQR) (patients with ES-SCLC [4]; final analysis): −60.4 (−72.9, −44.3) % | Odds ratio vs EP (95% CI), confirmed objective response (patients with ES-SCLC [4]; final analysis): 1.53 (1.08-2.18) | Odds ratio vs EP (95% CI), unconfirmed objective response (patients with ES-SCLC [4]; final analysis): 1.61 (1.09-2.40) | Remaining in response at 6 months (95% CI) (patients with ES-SCLC [4]; final analysis, Kaplan-Meier): 39.3 (32.2-46.3) % | Remaining in response at 12 months (95% CI) (patients with ES-SCLC [4]; final analysis, Kaplan-Meier): 23.2 (17.3-29.7) % | Remaining in response at 24 months (95% CI) (patients with ES-SCLC [4]; final analysis, Kaplan-Meier): 13.5 (8.7-19.3) % | Remaining in response at 12 months (95% CI) (patients with ES-SCLC [4]; [8]): 23.2% | Remaining in response at 24 months (95% CI) (patients with ES-SCLC [4]; [8]): 13.5% | Median (95% CI) duration of response (patients with ES-SCLC [4]; final analysis, confirmed responders, Kaplan-Meier): 5.1 (4.9-5.3) months | Best reduction from baseline in target lesion size, Median (IQR) (patients with ES-SCLC [4]; final analysis, listed as D+EP): −60.4% | Odds ratio vs EP (95% CI), confirmed objective response (patients with ES-SCLC [4]; final analysis, listed as D+EP): 1.53 | confirmed objective response (patients with ES-SCLC [4]; final analysis, post hoc): 68% | Best objective response: Not evaluable (patients with ES-SCLC [4]; interim analysis): 3 (1.1) n (%) | Best objective response: Progressive disease (patients with ES-SCLC [4]; interim analysis): 32 (11.9) n (%) | Best objective response: Stable disease ≥6 weeks (patients with ES-SCLC [4]; interim analysis): 20 (7.5) n (%) | Remaining in response at 6 months (patients with ES-SCLC [4]; interim analysis): 39.3% | Remaining in response at 12 months (patients with ES-SCLC [4]; interim analysis): 22.7% | confirmed ORR (patients with ES-SCLC [4]; interim analysis): 67.9% | confirmed complete response (patients with ES-SCLC [4]; interim analysis): 2.2% | ORR (confirmed) (patients with ES-SCLC [4]; interim analysis, RECIST v1.1): 182 (67.9) n (%) | Best objective response: Complete response (patients with ES-SCLC [4]; interim analysis, confirmed): 6 (2.2) n (%) | Best objective response: Partial response (patients with ES-SCLC [4]; interim analysis, confirmed): 176 (65.7) n (%) | Median DoR (95% CI) (patients with ES-SCLC [4]; interim analysis, confirmed responders): 5.1 (4.9-5.3) months | Median DoR (95% CI) (patients with ES-SCLC [4]; interim analysis, confirmed responders, listed as durvalumab plus EP): 5.1 months | Odds ratio (95% CI) for ORR versus EP (patients with ES-SCLC [4]; interim analysis): 1.56 (1.095-2.218) | Odds ratio (95% CI) for ORR versus EP (patients with ES-SCLC [4]; interim analysis, listed as durvalumab plus EP): 1.56 | unconfirmed and confirmed objective response rates, amount higher versus EP (patients with ES-SCLC [4]; updated analysis): approximately 10% | Any treatment-related event leading to death (patients with ES-SCLC [5]): 6 (2) n (%)

Tremelimumab: antibody that selectively binds a CTLA-4 polypeptide, as disclosed in U.S. Pat. No. 8,491,895
induction of NK ADCC activity [6]: does not induce natural killer (NK) antibody-dependent cell-mediated cytotoxicity (ADCC) activity | cross-reactivity to related human proteins (human CTLA-4): no cross-reactivity to related human proteins | specific binding to Fc receptors (Fc receptors): minimal specific binding to Fc receptors

B1: Durvalumab: human IgG1 monoclonal antibody that selectively binds PD-L1 and blocks binding to PD-1 and CD80; VL SEQ ID NO: 1, VH SEQ ID NO: 2 (antibody, V domains shown)
VH: EVQLVESGGGLVQPGGSLRLSCAASGFTFSRYWMSWVRQAPGKGLEWVANIKQDGSEKYYVDSVKGRFTISRDNAKNSLYLQMNSLRAEDTAVYYCAREGGWFGELAFDYWGQGTLVTVSS
VL: EIVLTQSPGTLSLSPGERATLSCRASQRVSSSYLAWYQQKPGQAPRLLIYDASSRATGIPDRFSGSGSGTDFTLTISRLEPEDFAVYYCQQYGSLPWTFGQGTKVEIK
tumor growth inhibition (xenograft model): inhibits tumor growth in a xenograft model via a T-cell dependent mechanism | relief of PD-L1-mediated suppression of human T-cell activation [7]: can relieve PD-L1-mediated suppression of human T-cell activation in vitro
